Measured values taken from patent US20250019450A1 (DIAGONAL THERAPEUTICS, published 2025).

T1: human IL-12Rβ2, Acro (BLI analyte) (human, UniProt Q99665 24-622, limits assumed)
T1 sequence (looked up): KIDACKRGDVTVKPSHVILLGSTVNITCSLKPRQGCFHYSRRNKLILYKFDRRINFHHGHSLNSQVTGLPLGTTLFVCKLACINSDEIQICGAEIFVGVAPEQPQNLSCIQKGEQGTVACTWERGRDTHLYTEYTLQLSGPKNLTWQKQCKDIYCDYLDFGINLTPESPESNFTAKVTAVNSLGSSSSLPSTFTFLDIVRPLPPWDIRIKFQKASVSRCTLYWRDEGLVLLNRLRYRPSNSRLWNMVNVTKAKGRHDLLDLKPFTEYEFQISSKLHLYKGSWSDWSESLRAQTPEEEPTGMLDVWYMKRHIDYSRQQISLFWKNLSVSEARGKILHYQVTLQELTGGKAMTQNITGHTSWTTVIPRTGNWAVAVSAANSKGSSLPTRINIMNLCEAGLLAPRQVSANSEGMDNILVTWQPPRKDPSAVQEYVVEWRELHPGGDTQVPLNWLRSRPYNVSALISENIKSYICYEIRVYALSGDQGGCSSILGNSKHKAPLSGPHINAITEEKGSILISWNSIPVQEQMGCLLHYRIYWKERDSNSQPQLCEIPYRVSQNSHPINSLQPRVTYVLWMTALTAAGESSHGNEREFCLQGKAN

T2: human IL-12RB2 with C-terminal HA tag, transiently expressed on HEK-293T cells (human, UniProt Q99665 24-862)
T2 construct: whole, on cells; also called human IL-12Rβ2
T2 sequence (looked up): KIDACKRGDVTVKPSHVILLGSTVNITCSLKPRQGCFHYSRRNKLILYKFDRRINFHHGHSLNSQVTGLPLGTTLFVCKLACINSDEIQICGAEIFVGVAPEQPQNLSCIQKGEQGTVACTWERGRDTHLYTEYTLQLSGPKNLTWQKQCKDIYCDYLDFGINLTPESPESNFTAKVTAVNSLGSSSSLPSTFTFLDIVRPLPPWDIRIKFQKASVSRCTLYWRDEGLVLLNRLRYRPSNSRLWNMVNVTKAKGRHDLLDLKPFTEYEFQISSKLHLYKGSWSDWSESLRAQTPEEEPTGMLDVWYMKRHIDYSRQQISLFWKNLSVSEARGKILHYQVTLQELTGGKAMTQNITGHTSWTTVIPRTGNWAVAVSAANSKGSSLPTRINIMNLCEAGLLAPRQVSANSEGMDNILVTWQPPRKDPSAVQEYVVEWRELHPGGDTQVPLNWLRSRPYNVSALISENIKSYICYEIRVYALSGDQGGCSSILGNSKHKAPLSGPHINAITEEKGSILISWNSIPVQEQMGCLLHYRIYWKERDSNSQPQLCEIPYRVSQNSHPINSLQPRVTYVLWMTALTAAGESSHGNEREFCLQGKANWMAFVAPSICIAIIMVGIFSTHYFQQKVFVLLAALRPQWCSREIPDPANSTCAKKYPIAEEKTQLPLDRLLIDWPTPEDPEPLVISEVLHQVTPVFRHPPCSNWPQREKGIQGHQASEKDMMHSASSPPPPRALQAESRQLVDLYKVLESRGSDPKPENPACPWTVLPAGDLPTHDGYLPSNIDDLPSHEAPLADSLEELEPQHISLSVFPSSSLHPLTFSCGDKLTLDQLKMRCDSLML

T3: cyno IL-12RB2 with C-terminal HA tag, transiently expressed on HEK-293T cells (cyno, UniProt A0A2K5VNI7 24-860)
T3 construct: whole, on cells; also called cyno IL-12Rβ2
T3 sequence: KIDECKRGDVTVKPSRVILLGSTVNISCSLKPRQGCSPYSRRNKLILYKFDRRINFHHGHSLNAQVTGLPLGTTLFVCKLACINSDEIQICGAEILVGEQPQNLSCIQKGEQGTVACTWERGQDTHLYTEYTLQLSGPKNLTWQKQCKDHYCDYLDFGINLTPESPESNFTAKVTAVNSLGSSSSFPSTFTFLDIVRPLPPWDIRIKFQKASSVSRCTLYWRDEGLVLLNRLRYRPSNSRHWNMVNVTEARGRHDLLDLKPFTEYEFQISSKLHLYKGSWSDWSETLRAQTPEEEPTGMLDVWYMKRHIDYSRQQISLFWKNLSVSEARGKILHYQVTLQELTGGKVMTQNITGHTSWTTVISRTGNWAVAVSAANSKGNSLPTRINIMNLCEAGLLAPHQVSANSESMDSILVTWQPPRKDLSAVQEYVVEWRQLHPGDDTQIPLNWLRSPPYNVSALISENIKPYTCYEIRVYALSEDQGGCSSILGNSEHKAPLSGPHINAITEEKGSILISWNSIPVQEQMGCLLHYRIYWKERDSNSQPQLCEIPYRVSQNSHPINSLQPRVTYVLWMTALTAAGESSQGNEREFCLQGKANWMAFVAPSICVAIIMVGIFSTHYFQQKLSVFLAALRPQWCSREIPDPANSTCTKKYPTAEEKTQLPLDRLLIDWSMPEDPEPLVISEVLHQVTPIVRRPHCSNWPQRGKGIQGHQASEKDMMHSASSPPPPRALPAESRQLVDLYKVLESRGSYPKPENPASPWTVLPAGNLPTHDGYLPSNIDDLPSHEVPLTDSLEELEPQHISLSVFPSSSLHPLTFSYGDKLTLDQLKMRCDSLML

B1: DGL421 (bispecific antibody, human IgG1, lambda)
heavy 1: not shown
heavy 2: QVQLQESGPGLVKPSQTLSLTCTVSGGSITTNYYYWSWIRQPPGKGLEWMGAIAYSGSTYYSPSLKSRTSISRDTSKNQFTLQLSSVTPEDTAVYYCASGINFYSNYPTLNEYDYWGQGTQVTVEPKSSDKTHTCPPCPAPEAAGAPSVFLFPPKPKDTLMISRTPEVTCVVVDVSHEDPEVKFNWYVDGVEVHNAKTKPREEQYNSTYRVVSVLTVLHQDWLNGKEYKCKVSNKALPAPIEKTISKAKGQPREPQVCTLPPSRDELTKNQVSLSCAVKGFYPSDIAVEWESNGQPENNYKTTPPVLDSDGSFFLVSKLTVDKSRWQQGNVFSCSVMHEALHNRFTQKSLSLSPG
light: QTVVTQEPSFSVSPGGTVTLTCGLTSGSVSTSYYPSWYQQTPGQAPRTLIYSTYTRSSGVPDRFSGSILGNKAALTITGAQADDESDYYCVLYMGSGIWVFGGGTKLTVLGQPKAAPSVTLFPPSSEELQANKATLVCLISDFYPGAVTVAWKADSSPVKAGVETTTPSKQSNNKYAASSYLSLTPEQWKSHRSYSCQVTHEGSTVEKTVAPTECS
notes: 85801_10K15A x 190B2
B2: DGL569 (bispecific antibody, V domains shown)
V domain 1: QVQLVESGGGLVQAGGSLRLSCAASRSISSFNEMAWYRQAPGEQRELVATIVSTVGFTNYADSVKGRFTISRDNAKNTVYLQMNSLKAEDTAVYYCNARRISTDYWGQGTQVTVEP
V domain 2: QVQLVESGGGLVQPGGSLRLSCAASGFTFSNYAMSWVRQAPGKGLEWVSAINSDGTSTSYADSVKGQFTISRDNAKNTLYLQMNSLKPEDTAVYYCTKWEGDTDSDYKFKDYWGQGTQVTVEP
notes: 233B1 x 19B2
B3: DGL572 (bispecific antibody, V domains shown)
V domain 1: B2 V domain 1
V domain 2: QVQLVESGGGLVQPGGSLRLSCAASGFTFEPYDMSWFRQAPGKGPEWVSAIDKGGGAGATYYADSVKGRFTISRDNAKKTLYLQMKSLKPEDTAVYYCAITAGPYSDSTPRVAYRGEGTQVTVEP
notes: 233B1 x 93B2
B4: DGL424 (bispecific antibody, human IgG1, lambda)
heavy 1: not shown
heavy 2: QVTLRESGPALVKPTQTLTLTCTFSGFSLSTSGMCVSWIRQPPGKALEWLALIYWDDDKYYSTSLKTRLTISKDTSKNQVVLTMTNMDPVDTATYYCARMRRGIEAFDIWGQGTMVTVFSASTKGPSVFPLAPSSKSTSGGTAALGCLVKDYFPEPVTVSWNSGALTSGVHTFPAVLQSSGLYSLSSVVTVPSSSLGTQTYICNVNHKPSNTKVDKKVEPKSCDKTHTCPPCPAPEAAGAPSVFLFPPKPKDTLMISRTPEVTCVVVDVSHEDPEVKFNWYVDGVEVHNAKTKPREEQYNSTYRVVSVLTVLHQDWLNGKEYKCKVSNKALPAPIEKTISKAKGQPREPQVCTLPPSRDELTKNQVSLSCAVKGFYPSDIAVEWESNGQPENNYKTTPPVLDSDGSFFLVSKLTVDKSRWQQGNVFSCSVMHEALHNRFTQKSLSLSPG
light: QSVLTQPPSVSGAPGQRVTISCTGSSSNIGAGYDVHWYQQLPGTAPKLLIFGYSNRPSGVPVRFSGSKSGTSASLAITGLLAEDEADFYCQSFDISLTGWVFGGGTKLTVLGQPKAAPSVTLFPPSSEELQANKATLVCLISDFYPGAVTVAWKADSSPVKAGVETTTPSKQSNNKYAASSYLSLTPEQWKSHRSYSCQVTHEGSTVEKTVAPTECS
notes: 54B1 x 85802_10K12A
B5: DGL516 (bispecific antibody, V domains shown)
V domain 1: QVQLVESGGGLAQAGGSLRLSCAASGRTFSNDDMAWFRQAPGKEREFVAHIDRNAASTNYADSVKGRFTISRDNAKNTVYLQMTRLKPEDTAVYYCAADPDHFGTTWYQQYTYWGPGTQVTVEP
V domain 2: B3 V domain 2
notes: 97B1 x 93B2
B6: 85801_04G19 (antibody, V domains shown)
VH: QVQLQESGPGLVKPSETLSLTCTVSGGSISSYYWSWIRQSAGKELEWIGRIYTSGSTIYNPSLKSRVTMSVDPSKNQFSLKLSSVTAADTAVYYCANSRSYPHDAFDIWGQGTMVTVSS
VL: DIQLTQSPSFLSASVGYRVTITCRASQGISSYLAWYQQKPGKAPQLLIYAASTLQSGVPSRFSGRGSGTEFTLTISSLQPEDFATYYCQQLNGYPFTFGPGTKVNIK
notes: also called 85801_04G19A
B7: 85801_10K15 (antibody, V domains shown)
VH: QITLKESGPTLVKPTQTLTLTCTFFGFSLNTGGVGVGWIRQPPGKALEWLTLIYWNDDKRYSPSLKSRLTITKDTSKNQVVLTMTNMDPVDTATYYCAHTLRWYHGFDIWGQGTMVTVSS
VL: QTVVTQEPSFSVSPGGTVTLTCGLTSGSVSTSYYPSWYQQTPGQAPRTLIYSTYTRSSGVPDRFSGSILGNKAALTITGAQADDESDYYCVLYMGSGIWVFGGGTKLTVL
notes: also called 85801_10K15A
B8: VHH211B2 (VHH)
VHH: QVQLVESGGGLVQAGNSLRLSCAASGRTFSSYVVGWFRQAPGKEREFVGRISWSGARTYYADSVKGRFTISRDNAKNTVYLQMNSLKPEDTAVYYCAADLKWEVLLSEHFEYWGQGTQVTVSS
B9: VHH229B2 (VHH)
VHH: QVQLVESGGGLVQAGGSLRLSCAASGRTFSSYAMGWFRQAPGKEREFVSAISWNGGSRYYVESVEGRFTISRDNAKNTVYLQMNSLKPEDTAVYYCAASRIYTNYVARSYEYDDWGQGTQVTVSS
B10: VHH277B2 (VHH)
VHH: QVQLVESGGGLVQLGDSLRLSCAASGRGFSSWTMAWFRQALGKRREFVAAITATGARTCSAESEGRFTISRDNAKNMVFLQMNSLKAEDTAVYYCAATEIAGWDPGMGDKYPYWGQGTQVTVSS

Each binder was assayed against human IL-12 receptor (IL-12Rβ1 and IL-12Rβ2) on HEK-Blue IL-12 cells (human, UniProt P42701 24-662; Q99665 24-862) (assay: cell-based or functional assay).

| EC50 | Max Absorbance | Binder |
| --- | --- | --- |
| 1.1e-09 M (implied) | 0.9 | B1 |
| 5.2e-09 M (implied) | 1.19 | B2 |
| 1.2e-08 M (implied) | 1.05 | B3 |
| 2.6e-10 M (implied) | 1.49 | B4 |
| 6.5e-11 M (implied) | 1.05 | B5 |

The binders below were run against human IL-12Rβ1, Acro (BLI analyte) (human, UniProt P42701 24-545) (assay: BLI (Octet), antibody on AHC tip).

| Kd | Binder |
| --- | --- |
| 6.06 nM | B1 |
| 1.7 nM | B2 |
| 1.48 nM | B3 |
| 27.3 nM | B5 |

These binders were tested against T1, human IL-12Rβ2, Acro (BLI analyte) (assay: BLI (Octet), antibody on AHC tip).

| Kd | Binder |
| --- | --- |
| 0.723 nM | B2 |
| 2.41 nM | B3 |
| 0.726 nM | B4 |
| 3.41 nM | B5 |

Each binder was assayed against T4, human IL-12RB1 overexpressed on 293T cells (Example 2) (human, UniProt P42701 24-662) (assay: FACS, hybridoma supernatant, 293T).
T4 construct: whole, on cells

| Fold over parental 293T | Binder |
| --- | --- |
| 262 fold | B6 |
| 57 fold | B7 |

The binders below were run against T5, cyno IL-12RB1 overexpressed on 293T cells (Example 2) (cyno, UniProt A0A2K5VWV1 24-662) (assay: FACS, hybridoma supernatant, 293T).
T5 construct: whole, on cells

| Fold over parental 293T | Binder |
| --- | --- |
| 116 fold | B6 |
| 21 fold | B7 |

What follows are binders tested against T2, human IL-12RB2 with C-terminal HA tag, … (assay: FACS, periplasmic extract, HEK-293T).

| FOB | Binder |
| --- | --- |
| 1.64 fold | B8 |
| 1.42 fold | B9 |
| 1.21 fold | B10 |

Each binder was assayed against T3, cyno IL-12RB2 with C-terminal HA tag, … (assay: FACS, periplasmic extract, HEK-293T).

| FOB | Binder |
| --- | --- |
| 0.99 fold | B8 |
| 1 fold | B9 |
| 1.55 fold | B10 |
